From article PMC3410980 (Bioconjugate chemistry, 2012)
Non-standard residues stand in square brackets, D forms with d. Residues, ends and D or L forms follow the SMILES beside them. *: point of attachment. DOTA = O=C(O)CN1CCN(CC(=O)O)CCN(CC(=O)*)CCN(CC(=O)O)CC1; Nspe = C[C@H](NCC(=O)O)c1ccccc1; Nphe = O=C(O)CNCc1ccccc1; Nlys = NCCCCNCC(=O)O

What was measured:
[1] = tail vein injection, 0.25-24 h
in vivo = details: Balb/c, mouse, total radioactivity
[2] = hydrophobicity by reverse phase analytical HPLC; assay type: physicochemical; details: retention time in reverse phase HPLC column (C18, 55 °C)

Structure (SMILES) | excretion route, kidney activity and clearance seen by PET [1] | tissue uptake at 2 h (in vivo; kidney, iv) | tissue uptake at 2 h (in vivo; liver, iv) | tissue uptake at 24 h (in vivo; liver, iv) | tissue uptake at 24 h (in vivo; kidney, iv) | oral absorption / bioavailability (administered orally) | lower liver uptake relative to ^64Cu-1 (intravenous) | tissue uptake at 2 h (in vivo; stomach, po) | tissue uptake at 24 h (in vivo; stomach, po) | hydrophobicity (tR in minutes) [2]
NCCCCN(CC(=O)N(CC(=O)N(CC(=O)N(CCCCN)CC(=O)N(CC(=O)N(CC(=O)N(CCCCN)CC(=O)N(CC(=O)N(CC(=O)N(CCCCN)CC(=O)N(CC(=O)N(CC(N)=O)Cc1ccccc1)Cc1ccccc1)Cc1ccccc1)Cc1ccccc1)Cc1ccccc1)Cc1ccccc1)Cc1ccccc1)Cc1ccccc1)C(=O)CN1CCN(CC(=O)O)CCN(CC(=O)O)CCN(CC(=O)O)CC1 [^64Cu-2, metal not drawn] ({DOTA}-[Nlys][Nphe][Nphe][Nlys][Nphe][Nphe][Nlys][Nphe][Nphe][Nlys][Nphe][Nphe]-NH2) | main excretion route is likely hepatic | 12.6 ± 2.3 %ID/g | 125 ± 16.8 %ID/g | 72.2 ± 11.3 %ID/g | – | – | – | – | – | –
C[C@@H](c1ccccc1)N(CC(N)=O)C(=O)CN(CCCCN)C(=O)CN(C(=O)CN(C(=O)CN(CCCCN)C(=O)CN(C(=O)CN(C(=O)CN(CCCCN)C(=O)CN(C(=O)CN(C(=O)CN(CCCCN)C(=O)CN1CCN(CC(=O)O)CCN(CC(=O)O)CCN(CC(=O)O)CC1)[C@@H](C)c1ccccc1)[C@@H](C)c1ccccc1)[C@@H](C)c1ccccc1)[C@@H](C)c1ccccc1)[C@@H](C)c1ccccc1)[C@@H](C)c1ccccc1 [^64Cu-3, metal not drawn] ({DOTA}-[Nlys][Nspe][Nspe][Nlys][Nspe][Nspe][Nlys][Nspe][Nspe][Nlys][Nspe]-NH2) | highest kidney activity of all three peptoids | ~31.2 %ID/g | 56.7 ± 1.8 %ID/g | 47.3 ± 4.4 %ID/g | 19.3 ± 2.6 %ID/g | poor bioavailability | more than 50% | – | – | –
C[C@@H](c1ccccc1)N(CC(N)=O)C(=O)CN(C(=O)CN(CCCCN)C(=O)CN(C(=O)CN(C(=O)CN(CCCCN)C(=O)CN(C(=O)CN(C(=O)CN(CCCCN)C(=O)CN(C(=O)CN(C(=O)CN(CCCCN)C(=O)CN1CCN(CC(=O)O)CCN(CC(=O)O)CCN(CC(=O)O)CC1)[C@@H](C)c1ccccc1)[C@@H](C)c1ccccc1)[C@@H](C)c1ccccc1)[C@@H](C)c1ccccc1)[C@@H](C)c1ccccc1)[C@@H](C)c1ccccc1)[C@@H](C)c1ccccc1 [^64Cu-1, metal not drawn] ({DOTA}-[Nlys][Nspe][Nspe][Nlys][Nspe][Nspe][Nlys][Nspe][Nspe][Nlys][Nspe][Nspe]-NH2) | main excretion route is likely hepatic | 14.4 ± 0.9 %ID/g | 138 ± 13.4 %ID/g | 95.6 ± 10.5 %ID/g | – | – | – | 4.82 ± 1.44 %ID/g | 0.54 ± 0.22 %ID/g | –
NCCCCN(CC(=O)N(CC(=O)N(CC(=O)N(CCCCN)CC(=O)N(CC(=O)N(CC(=O)N(CCCCN)CC(=O)N(CC(=O)N(CC(=O)N(CCCCN)CC(=O)N(CC(=O)N(CC(N)=O)Cc1ccccc1)Cc1ccccc1)Cc1ccccc1)Cc1ccccc1)Cc1ccccc1)Cc1ccccc1)Cc1ccccc1)Cc1ccccc1)C(=O)CN1CCN(CC(=O)O)CCN(CC(=O)O)CCN(CC(=O)O)CC1 [Compound 2] ({DOTA}-[Nlys][Nphe][Nphe][Nlys][Nphe][Nphe][Nlys][Nphe][Nphe][Nlys][Nphe][Nphe]-NH2) | – | – | – | – | – | – | – | – | – | 24.1 min
C[C@@H](c1ccccc1)N(CC(N)=O)C(=O)CN(CCCCN)C(=O)CN(C(=O)CN(C(=O)CN(CCCCN)C(=O)CN(C(=O)CN(C(=O)CN(CCCCN)C(=O)CN(C(=O)CN(C(=O)CN(CCCCN)C(=O)CN1CCN(CC(=O)O)CCN(CC(=O)O)CCN(CC(=O)O)CC1)[C@@H](C)c1ccccc1)[C@@H](C)c1ccccc1)[C@@H](C)c1ccccc1)[C@@H](C)c1ccccc1)[C@@H](C)c1ccccc1)[C@@H](C)c1ccccc1 [Compound 3] ({DOTA}-[Nlys][Nspe][Nspe][Nlys][Nspe][Nspe][Nlys][Nspe][Nspe][Nlys][Nspe]-NH2) | – | – | – | – | – | – | – | – | – | 23.9 min
